# B1: double-tailed DNA (3'- and 5'-recessed ends) (dsDNA)
# DNA 1: GCAGACACTACGAGTACATA
# DNA 2: TTTTTTTTTTTATGTACTCGTAGTGTCTGCTTTTTTTTTT
# modifications: 5'-OH
# Molecular target: Rad24-RFC clamp loader;9-1-1 clamp (Ddc1-Mec3-Rad17) (Saccharomyces cerevisiae;Saccharomyces …, UniProt P32641;P40348;P38629;P40339;P38251;Q08949;Q02574;P48581 …, |)
# Test: cryo-EM structure; closed 9-1-1 state; 0.5 mM ATPgS, 5 mM Mg acetate; 4 ATPgS and 1 ADP bound; 3.2 A; 1.8 uM Rad24-RFC, 2.2 uM 9-1-1, 2.7 uM DNA, 0.5 mM ATPgS, 5 mM Mg acetate; 9-1-1 + DNA 10 min at 30 C, then with loader on ice water 30 min (double-tailed) or 3
binder,measurement,value
B1,binding result,binds
